We go through two substances from PMC10138814.

For assay [1], the target named is His6-SUMO-LaM8-LaM4 (llama). The experiment in a line: BLI; His-SUMO-tandem nanobody loaded on Ni-NTA biosensors; mCherry or DsRed in solution; 20 mM HEPES pH 7.4, 150 mM NaCl, 0.005% Tween-20; association 600 s, dissociation 600 s; 2:1 heterogeneous ligand fit; DsRed concentration calculated as a monomer.
Assay [2] concerns the target His6-SUMO-LaM1-LaM8 (llama). The assay is described as above.

Sequence of DsRed (Q9U6Y8 whole entry): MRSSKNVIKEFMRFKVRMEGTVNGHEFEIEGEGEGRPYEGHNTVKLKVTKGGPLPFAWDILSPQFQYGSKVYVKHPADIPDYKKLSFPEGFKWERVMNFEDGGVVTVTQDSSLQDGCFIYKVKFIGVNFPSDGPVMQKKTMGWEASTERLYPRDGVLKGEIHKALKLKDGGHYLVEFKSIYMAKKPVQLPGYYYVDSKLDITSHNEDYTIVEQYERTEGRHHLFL

On to “DsRed (from UniProt Q9U6Y8 1-225) (natural protein)”, for which, in assay [1], the KD2 is 4.12 nM, the KD (site 1 of the 2:1 heterogeneous ligand fit) was 2.64 nM, the kdis1 is 0.000232 s⁻¹ and the kdis2 is 8.2e-05 s⁻¹. In addition, in assay [1], the kon2 is 19900 M⁻¹ s⁻¹ and the kon (site 1 of the 2:1 heterogeneous ligand fit) is 88100 M⁻¹ s⁻¹.
As for mCherry, in assay [1], the KD2 is 1.29 nM, the KD (site 1 of the 2:1 heterogeneous ligand fit) was 1.38 nM, the kdis1 was 0.000239 s⁻¹ and the kdis2 is 6.51e-05 s⁻¹. Moreover, in assay [1], the kon2 is 50600 M⁻¹ s⁻¹ and the kon (site 1 of the 2:1 heterogeneous ligand fit) was 173000 M⁻¹ s⁻¹. Further, in assay [2], the KD2 was less than 1 pM, the KD (site 1 of the 2:1 heterogeneous ligand fit) was 1.87 nM, the kdis1 was 0.000552 s⁻¹ and the kdis2 is less than 1e-07 s⁻¹. Besides, in assay [2], the kon2 was 46700 M⁻¹ s⁻¹ and the kon (site 1 of the 2:1 heterogeneous ligand fit) is 296000 M⁻¹ s⁻¹.
